Publication PMC3493496, “Mechanism of Selective VEGF-A Binding by Neuropilin-1 Reveals a Basis for Specific Ligand Inhibition” (PLoS ONE, 2012)
“And” between values parts separate entries of the source, which are not always exact repeats. Equal entries are not always repeated. Where two headings read alike, the source gives them in different places. No end group written: not given here.

B2: Nrp1 b1b2 domains (human neuropilin-1) (domain or fragment, UniProt O14786 274-586, looked up)
chain: KCMEALGMESGEIHSDQITASSQYSTNWSAERSRLNYPENGWTPGEDSYREWIQVDLGLLRFVTAVGTQGAISKETKKKYYVKTYKIDVSSNGEDWITIKEGNKPVLFQGNTNPTDVVVAVFPKPLITRFVRIKPATWETGISMRFEVYGCKITDYPCSGMLGMVSGLISDSQITSSNQGDRNWMPENIRLVTSRSGWALPPAPHSYINEWLQIDLGEEKIVRGIIIQGGKHRENKVFMRKFKIGYSNNGSDWKMIMDDSKRKAKSFEGNNNYDTPELRTFPALSTRFIRIYPERATHGGLGLRMELLGCEVE
notes: neuropilin-1 (Nrp1), human, b1b2 coagulation factor domains; Limits of the b1b2 construct are in the cited earlier work; about residues 273-586 as I recall; also called soluble Nrp1; wild-type Nrp1

What was measured:
[1] = target: VEGF-A165; test: AP-Nrp binding to VEGF-A affinity plates; conditions: parent: est. 100; read off a plot
[2] = target: AP-fusion of VEGF-A164 (AP-VEGF-A); test: AP-fusion solid-phase plate binding assay (competition); Nrp1 b1b2 adsorbed on 96 well plates (2.5 ng/µl, low density); soluble Nrp titrated with AP-VEGF-A (155 µmole p-NPP hydrolyzed/min/L) in 20 mM Tris pH 7.5, 300 mM NaCl, 1 hr at 25°C; retained AP activity read at 405 nm; whether AP-VEGF-A was purified is not given
[3] = target: AP-fusion of VEGF-A164 (AP-VEGF-A); test: as above; remark: listed apart in the source
[4] = target: T1, AP-fusion of full length Sema3F (AP-Sema3F; residues 20-779) (UniProt Q13275 20-779); test: AP-fusion solid-phase plate binding assay (competition); low density Nrp1 affinity plates; soluble Nrp1 or Nrp2 combined with AP-Sema3F (648 µmole p-NPP hydrolyzed/min/L) in incubation buffer (20 mM Tris pH 7.5, 300 mM NaCl), 1 h at 25°C; whether AP-Sema3F was purified is not told
T1 construct: source: CHO cells, large-scale transient transfection from pAPtag-5
T1 sequence (looked up): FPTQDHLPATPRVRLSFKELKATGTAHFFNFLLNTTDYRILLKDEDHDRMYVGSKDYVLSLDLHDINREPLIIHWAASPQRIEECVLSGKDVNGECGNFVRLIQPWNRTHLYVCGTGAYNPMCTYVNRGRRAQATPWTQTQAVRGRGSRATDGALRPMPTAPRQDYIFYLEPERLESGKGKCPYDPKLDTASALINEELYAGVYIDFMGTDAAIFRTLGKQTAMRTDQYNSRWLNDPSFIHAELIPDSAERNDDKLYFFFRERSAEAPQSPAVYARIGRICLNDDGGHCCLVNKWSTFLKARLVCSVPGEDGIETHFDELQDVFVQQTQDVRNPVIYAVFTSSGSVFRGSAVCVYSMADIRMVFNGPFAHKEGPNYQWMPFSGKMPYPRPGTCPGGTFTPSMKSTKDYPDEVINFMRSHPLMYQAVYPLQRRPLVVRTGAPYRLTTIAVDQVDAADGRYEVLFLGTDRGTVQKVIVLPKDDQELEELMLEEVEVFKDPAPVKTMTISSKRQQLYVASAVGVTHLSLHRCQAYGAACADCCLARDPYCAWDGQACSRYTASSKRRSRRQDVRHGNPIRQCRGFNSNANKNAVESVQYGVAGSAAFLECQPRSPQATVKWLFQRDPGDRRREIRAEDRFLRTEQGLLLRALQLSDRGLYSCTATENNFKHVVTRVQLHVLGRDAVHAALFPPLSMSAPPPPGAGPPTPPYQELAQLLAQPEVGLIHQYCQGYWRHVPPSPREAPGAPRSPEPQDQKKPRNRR

[5] = target: T2, AP-fusion of the Sema3F Ig and basic domains (AP-Sema3F-Ig-basic; residues 605-779) (UniProt Q13275 605-779); test: AP-fusion solid-phase plate binding assay (competition); high density Nrp1 affinity plates (50 ng/µl); soluble Nrp1 or Nrp2 combined with AP-Sema3F-Ig-basic (181 µmole p-NPP hydrolyzed/min/L) in binding buffer (20 mM Tris pH 7.5, 50 mM NaCl), 1 hr at 25°C; whether the AP fusion was purified is not told
T2 construct: semaphorin 3F (Sema3F), Ig and basic domains, residues 605-779; source: CHO cells, large-scale transient transfection from pAPtag-5
T2 sequence (looked up): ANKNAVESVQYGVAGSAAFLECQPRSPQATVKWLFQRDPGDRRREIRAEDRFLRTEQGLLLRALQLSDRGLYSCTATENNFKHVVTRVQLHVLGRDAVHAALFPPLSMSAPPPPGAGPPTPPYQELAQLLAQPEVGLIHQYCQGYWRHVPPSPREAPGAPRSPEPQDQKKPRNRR

[6] = target: B2; test: AP-fusion solid-phase plate binding assay (competition); C-furSema peptides titrated with AP-VEGF-A (100 µmole p-NPP hydrolyzed/min/L) in incubation buffer on low density Nrp1 affinity plates, 1 h at 25°C; pair: peptide and adsorbed Nrp1; conditions: both partners purified

Molecule “AP-Nrp1 b1b2, wild-type 299-TN-300 replaced by DGR (TN/DGR)” has a percent of parent [1] of 11%.

For AP-Nrp1 b1b2, wild-type E304Q; R305Q, the percent of parent [1] was 38%.

In the case of AP-Nrp2 b1b2, wild-type Q307E; Q308R, the percent of parent [1] is reported as 60%.

For “AP-Nrp1 b1b2, wild-type K350Q; K351N; K352G”, the percent of parent [1] was 34%.

With “AP-Nrp2 b1b2, wild-type 301-DGR-303 replaced by TN (DGR/TN)” the percent of parent [1] was 310%.

AP-Nrp2 b1b2, wild-type R287E was tested, and the percent of parent [1] was 310%.

“AP-Nrp2 b1b2, wild-type Q353K; N354K; G355K” showed a percent of parent [1] of 510%.

AP-Nrp1 b1b2, wild-type E285R showed a percent of parent [1] of 41%.

B1: Nrp2 b1b2 domains (human neuropilin-2) (domain or fragment, UniProt O60462 276-595, looked up)
chain: QCNVPLGMESGRIANEQISASSTYSDGRWTPQQSRLHGDDNGWTPNLDSNKEYLQVDLRFLTMLTAIATQGAISRETQNGYYVKSYKLEVSTNGEDWMVYRHGKNHKVFQANNDATEVVLNKLHAPLLTRFVRIRPQTWHSGIALRLELFGCRVTDAPCSNMLGMLSGLIADSQISASSTQEYLWSPSAARLVSSRSGWFPRIPQAQPGEEWLQVDLGTPKTVKGVIIQGARGGDSITAVEARAFVRKFKVSYSLNGKDWEYIQDPRTQQPKLFEGNMHYDTPDIRRFDPIPAQYVRVYPERWSPAGIGMRLEVLGCDWT
notes: neuropilin-2 (Nrp2), human, b1b2 coagulation factor domains; Limits of the b1b2 construct are in the cited earlier work; also called soluble Nrp2; wild-type Nrp2
In the case of B1, the IC50 [2] is reported as 310 µM, the IC50 [3] is reported as 120 µM and 160 µM and 200 µM and the IC50 [4] is reported as 2.7 µM. For the same molecule, the IC50 [5] was 6.2 µM.

In the case of B2, the IC50 [2] is reported as 1.8 µM, the IC50 [3] is reported as 1.6 µM and 2 µM and the IC50 [4] is reported as 2 µM. For the same molecule, the IC50 [5] was 1.2 µM.

B3: C-furSema3A (peptide of the C-terminal basic domain of furin processed Sema3A; residues 718-769) (peptide, UniProt Q14563 718-769, looked up)
peptide: MDEFCEQVWKRDRKQRRQRPGHTPGNSNKWKHLQENKKGRNRRTHEFERAPR
modifications: also: dimer via intermolecular disulfide (oxidized)
notes: semaphorin 3A (Sema3A), C-terminal basic domain of the furin processed form, residues 718-769; source: synthetic peptide (Neo-Peptide, Cambridge, MA), oxidized and purified
B3 gave an IC50 [6] of 0.067 µM.

B4: C-furSema3F (peptide of the C-terminal basic domain of furin processed Sema3F; residues 740-779) (peptide, UniProt Q13275 740-779, looked up)
peptide: GLIHQYCQGYWRHVPPSPREAPGAPRSPEPQDQKKPRNRR
modifications: also: dimer via intermolecular disulfide (oxidized)
notes: semaphorin 3F (Sema3F), C-terminal basic domain of the furin processed form, residues 740-779; source: synthetic peptide (LifeTein, South Plainfield, NJ), oxidized and purified
In the case of B4, the IC50 [6] is reported as 0.022 µM.
